Patent US7740882B2, “Enhanced oral and transcompartmental delivery of therapeutic or diagnostic agents” (priority 2001, dated 2010)
Entries after “also recorded” stand apart in the source; their conditions may differ. Where two headings read alike, the source gives them in different places.

B1: SMVT in BBMECs (Bos taurus) (protein)
chain: MSVGLSTATPLPPASDTDVVTSTFSLVDYVVFVLLLVLSLAIGLYHAYRGWGRHSIGQLLLADRKMGCLPVALSLLATFQSAVAILGVPSEIYRFGTQYWFLGCCYFLGLLIPAHVFIPIFYRLHITSAYEYLELRFNKAVRVCGTVTFIFQMVIYMGVVLYAPSLALNAVTGFDLWLSVLTLGIVCTIYTALGGLKAVIWTDVFQTLVMFLGQLAVIIVGSAKVGGLGHVWEVASQHGLISGIELDPDPFVRHTFWTLAFGGVFMMLSLYGVNQAQVQRYLSSRTEKAAVLSCYAVFPCQQVALSMGCLIGLVMFTYYQEYPMSTQQSQAAPDQFVLYFVMDLLRGLPGLPGLFVACLFSGSLSTISSAFNSLATVTMEDLIRPWFPHVSEVRATMLSRIIAFGYGLLCLGMAYISSQMGPVLQAAISIFGMVGGPLLGLFCLGMFFPCANPPGAIVGLLAGLIMAFWIGIGSIVTSMGSGRALSPPNGSSFSLSSNLTAVTMATLMPSTAASKPTGLQRLYSLSYLWYSAHNSTTVIVVGLAVSLLSGGMRGRTVDPRTIYPVLPKLLALLPLSCQKRLPCRAGSQDLSLEACMFPEKMSNGMLRGSRDQVDMAVPEEGPVQPGISPTFILQETSL

How the values were obtained:
[1] = target: T1, SMVT (Homo sapiens, UniProt Q9Y289); assay: Inhibition of substrate uptake in CHO/hSMVT cells by 50 μM SMVT substrates; assay type: in vitro ADME; parameters: expressed in transfected cells; host or cells: CHO cells (ATCC), transient Lipofectamine transfection; plasmid was a gift of Dr. Puttur D. Prasad; details: for inhibition of RI-K(biotin)-Tat9 uptake: 0.1 μM RI-K(biotin)-Tat9, inhibitor 50 μM; for inhibition of biotin-PEG-3400 uptake: 0.1 μM biotin-PEG-3400, inhibitor 50 μM; for inhibition of PEG:(RI-K(biotin)-Tat9)8 uptake: 0.1 μM conjugate, inhibitor 50 μM
T1 sequence (Q9Y289 1-635): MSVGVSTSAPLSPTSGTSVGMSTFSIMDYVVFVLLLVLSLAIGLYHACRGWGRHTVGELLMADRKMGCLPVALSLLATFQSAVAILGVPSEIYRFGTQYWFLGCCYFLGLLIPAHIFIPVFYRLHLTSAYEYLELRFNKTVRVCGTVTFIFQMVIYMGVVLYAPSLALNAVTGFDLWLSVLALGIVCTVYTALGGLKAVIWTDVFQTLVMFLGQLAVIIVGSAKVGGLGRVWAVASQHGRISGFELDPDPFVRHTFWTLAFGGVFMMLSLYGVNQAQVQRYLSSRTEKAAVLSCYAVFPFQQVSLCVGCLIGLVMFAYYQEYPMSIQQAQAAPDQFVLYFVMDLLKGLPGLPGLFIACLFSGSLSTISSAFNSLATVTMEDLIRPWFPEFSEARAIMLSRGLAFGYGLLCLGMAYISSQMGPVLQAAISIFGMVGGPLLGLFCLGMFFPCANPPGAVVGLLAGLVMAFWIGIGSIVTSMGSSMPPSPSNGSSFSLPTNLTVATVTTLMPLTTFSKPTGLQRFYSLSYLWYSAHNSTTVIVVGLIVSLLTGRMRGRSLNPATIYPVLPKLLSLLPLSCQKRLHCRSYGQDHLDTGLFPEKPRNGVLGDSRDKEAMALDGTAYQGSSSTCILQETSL

[2] = target: T2, SMVT in BBMECs (Bos taurus, UniProt A1L530); assay: Biotin uptake by BBMECs (characterization of biotin transporter); assay type: in vitro ADME, bovine
T2 construct: endogenous in cells; host or cells: primary bovine brain microvessel endothelial cells (BBMECs)
T2 sequence (A1L530 1-638): B1 chain

[3] = target: T3, fMLF receptor on differentiated HL-60 cells (Homo sapiens, UniProt P21462); assay: Competitive receptor binding assay with fML[3H]F; details: for Avidity Activation EC50/Kd: ratio of EC50 (calcium) to Kd
T3 construct: endogenous in cells; host or cells: HL-60 cells differentiated with 1.3% DMSO for 48 h; whole cells
T3 sequence (P21462 1-350): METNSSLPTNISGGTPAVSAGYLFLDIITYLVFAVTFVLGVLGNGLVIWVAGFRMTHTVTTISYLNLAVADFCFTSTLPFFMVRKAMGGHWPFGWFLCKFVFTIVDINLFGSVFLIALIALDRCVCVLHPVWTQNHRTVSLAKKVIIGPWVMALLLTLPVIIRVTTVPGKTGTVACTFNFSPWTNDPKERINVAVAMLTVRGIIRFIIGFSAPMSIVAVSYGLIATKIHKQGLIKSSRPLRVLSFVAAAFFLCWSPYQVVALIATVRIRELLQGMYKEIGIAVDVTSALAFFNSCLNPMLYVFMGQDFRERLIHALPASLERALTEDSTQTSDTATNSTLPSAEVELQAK

[4] = tested on: differentiated HL-60 cells; assay: Intracellular calcium assay (45Ca release from intracellular stores); assay type: cell-based, human; details: for EC50: differentiated HL-60 cells, calcium release, read-out: Cell Activation EC50
Protocol: Intracellular Calcium Assay. HL-60 cells (2×10^5 cells/mL) were grown in the presence of 1.3% DMSO for 5 days. For each time course experiment, 2×10^6 cells were resuspended in 5 mL of HBSS containing 2 mCi/mL of ^45CaCl2 as the sole source of calcium. After 90 min incubation at 37° C., cells were washed twice as above with cold HBSS. […] Cell pellets were treated with 0.5% Triton X-100/0.1 M NaOH and centrifuged in tubes containing 0.3 mL of 10% sucrose and radioactivity associated with the pellets was measured; this represents vesicle-associated ^45Ca. The top portion of the tube, which contained the cytoplasmic ^45Ca was also measured.

[5] = substrate: O=C(O)CCCC[C@@H]1SC[C@@H]2NC(=O)N[C@@H]21; assay: cells, lysate or membranes named; details: other: BBMECs, 37° C.
[6] = Kd multiplied by average number of fMLF moieties, read-out: Relative Avidity Kd/fMLP
[7] = differentiated HL-60 cells, competition with fML[3H]F, read-out: Avidity Kd

| Molecule | inhibition of biotin uptake [2] | Kd [3, 6] | Kd [3, 7] | Avidity Activation EC50/Kd [3] | EC50 [4] | other results |
| --- | --- | --- | --- | --- | --- | --- |
| C[C@@H]1NC(=O)N[C@@H]1CCCCCC(=O)O [desthiobiotin] | inhibited the uptake of biotin significantly |  |  |  |  | inhibition of RI-K(biotin)-Tat9 uptake [1]: significantly inhibited; also recorded: significantly lowered (p<0.001); inhibition of biotin-PEG-3400 uptake [1]: significantly (p<0.01) inhibited; inhibition of PEG:(RI-K(biotin)-Tat9)8 uptake [1]: significantly lower (p<0.05) |
| N[C@@H]1[C@H](CCCCC(=O)O)SC[C@@H]1N [diaminobiotin] | very weak |  |  |  |  |  |
| N=C1N[C@H]2[C@H](CS[C@H]2CCCCC(=O)O)N1 [iminobiotin] | very weak |  |  |  |  |  |
| CC(C)(CO)[C@@H](O)C(=O)NCCC(=O)O [pantothenic acid] | inhibited the uptake of biotin significantly |  |  |  |  | inhibition of RI-K(biotin)-Tat9 uptake [1]: significantly inhibited; inhibition of biotin-PEG-3400 uptake [1]: significantly (p<0.01) inhibited; inhibition of PEG:(RI-K(biotin)-Tat9)8 uptake [1]: significantly lower (p<0.05) |
| B3-PEG-fMLF3: 3-arm branched amino-PEG fully coupled with fMLF |  | 5.7 nM | 1.9 nM | 5.05 | 9.6 nM |  |
| B4-PEG-fMLF4: 4-arm branched amino-PEG fully coupled with fMLF |  | 3.2 nM | 0.8 nM | 6.25 | 5 nM |  |
| B8-PEG-fMLF1.1: 8-arm branched amino-PEG with on average 1.1 fMLF residues per polymer |  | 209 nM | 190 nM |  |  | calcium flux ([4]; even at 100 nM polymer): virtually no flux of calcium |
| B8-PEG-fMLF5.5: 8-arm branched amino-PEG with on average 5.5 fMLF residues per polymer |  | 2.75 nM | 0.5 nM | 10.6 | 5.3 nM |  |
| B8-PEG-fMLF8: 8-arm branched amino-PEG with 8 fMLF residues per polymer |  | 1.44 nM | 0.18 nM | 27.8 | 5 nM | increase in avidity over B8-PEG-fMLF1.1 [3]: more than 1000 fold; fMLF receptors occupied ([3]; at 1 nM): ~100%; cellular activation ([4]; at 1 nM): little or no cellular activation |
| PEG/A-fMLF4: linear PEG-aspartate copolymer (29 kDa) with four fMLF residues |  | 4.4 nM | 1.1 nM |  |  |  |
| B1 |  |  |  |  |  | Km [5]: 54.6 µM |
